The term Kd denotes the equilibrium constant for the complex coming apart. In general, IC50 refers to the concentration that inhibits the measured activity by half.

Numbering of substitutions follows the chain as printed.

In data set [1] the target is T1, complement C5 (full length) (Homo sapiens, UniProt P01031). As to the kind of experiment: filter; among 11 best clones in 500 nM screen; Kd not given. To be noted: tags: Quidel / Complement Technologies A120.14 / Advanced Research Technologies. How it is done:
(§1) Doped reselection data. Both the normal and high salt selections were enriched after 5 rounds over the naïve pool. At round 5 the pool Kd was approximately 165 nM for the high salt selection and 175 nM for the normal salt selection. The extent of binding was about 20% at the plateau in both. The R4 pools were cloned using TOPO TA cloning kit (Invitrogen, Carlsbad, Calif.), and 48 clones from each pool were sequenced. 12 clones from each pool were transcribed and assayed in a single point dot blot assay at 500 nM C5. Dissociation constants (Kds) were again measured using the dot blot assay previously described. Kds were estimated for the 11 best clones identified in the single point screen, by fitting the data to the equation: fraction RNA bound=amplitude*Kd/(Kd+[C5]). The clones with the three best Kds were SEQ ID NO: 91 (73 nM), SEQ ID NO: 96 (84 nM) and SEQ ID NO: 95 (92 nM). The sequences for these 11 clones are listed below in Table 5.

Data set [2] concerns the target T1, complement C5 (full length). In words: filter; dot blot, no binding. The note with it: tags: Quidel / Complement Technologies A120.14 / Advanced Research Technologies.
The target in another data set is complement C1q (Homo sapiens, UniProt P02745;P02746;P02747 P02745:23-245,P02746:28-253,P02747:29-245). As to the kind of experiment: filter; PBS, 1 mM MgCl2, BSA, tRNA. To be noted: tags: Complement Technologies A099.18; chain copies: 6; label: 5'-32P; stem-loop. As to the method:
(§2) The specificity of ARC186 (SEQ ID NO: 4) for C5 was also assessed in nitrocellulose filtration assays by comparison with complement components both upstream and downstream from C5 in the complement cascade. Purified human proteins and protein complexes were purchased from Complement Technologies (Iyler, Tex.) including: C1q (cat. # A099.18; 2.3 μM), C3 (cat. # A113c.8; 27 μM, C5 (cat. # A120.14; 5.4 μM), C5a des Arg (cat. # A145.6; 60 μM), sC5b-9 (cat. # A127.6; 1 μM), factor B (cat. # A135.12; 11 μM) and factor H (cat #A137.13P; 6.8 μM). Binding reactions were established by performing serial dilutions of protein in PBS plus 1 mM MgCl₂, 0.02 mg (mL BSA and 0.002 mg/mL tRNA, incubating for 14 hours at 25° C. or 37° C., and then applied to the nitrocellulose filtration apparatus as described above. Dissociation constants KD were determined from semi-log plots of % nitrocellulose binding versus [C5] by a fit of the data to the equation: % nitrocellulose binding=amplitude×[C5]/(KD+[C5]).

Data set [3] has as its target T1, complement C5 (full length). In words: filter; PBS, 1 mM MgCl2, 23 C, 4 h; 0.6 nM at 37 C; kinetic estimate 0.07 nM (koff 0.013 /min, kon 0.18 /nM/min). To be noted: tags: Quidel / Complement Technologies A120.14 / Advanced Research Technologies; label: 5'-32P; stem-loop. How it is done:
The binding reactions were analyzed by nitrocellulose filtration using a Minifold I dot-blot, 96-well vacuum filtration manifold (Schleicher & Schuell, Keene, N.H.). A three-layer filtration medium was used, consisting (from top to bottom) of Protran nitrocellolose (Schleicher & Schuell), Hybond-P nylon (Amersham Biosciences, Piscataway, N.J.) and GB002 gel blot paper (Schleicher & Schuell). The nitrocellulose layer, which selectively binds protein over nucleic acid, preferentially retained the anti-C5 aptamer in complex with a protein ligand, while non-complexed anti-C5 aptamer passed through the nitrocellulose and adhered to the nylon. The gel blot paper was included simply as a supporting medium for the other filters. Following filtration, the filter layers were separated, dried and exposed on a phosphor screen (Amersham Biosciences) and quantified using a Storm 860 Phosphorimager® blot imaging system (Amersham Biosciences).
To analyze the association reaction, the equilibration rate constant (keq) for the formation of C5·ARC186 was measured in the presence of varying concentrations of C5 protein (1-5 nM). Complex formation was initiated by mixing together C5 protein and radiolabeled ARC186 in PBS containing 1 mM MgCl₂ at room temperature (23° C.), and stopped by nitrocellulose filtration partitioning. […]

In a further data set the target is C5a des Arg (Homo sapiens, UniProt P01031 P01031:678-750). In words: filter; printed >>3 uM; PBS, 1 mM MgCl2, BSA, tRNA, 25 or 37 C. The note with it: tags: Complement Technologies A145.6; label: 5'-32P; stem-loop. How it is done:
as §2

In a further data set the target is sC5b-9 complex (Homo sapiens, UniProt P01031;P01031;P13671;P10643;P07357;P07358;P07360;P02748;P04004 …). As to the kind of experiment: filter; PBS, 1 mM MgCl2, BSA, tRNA, 25 or 37 C. The note with it: tags: Complement Technologies A127.6; label: 5'-32P; stem-loop. How it is done: as §2
The next data set concerns the target complement C3 (Homo sapiens, UniProt P01024;P01024 P01024:23-667,P01024:672-1663). In words: filter; non-activated C3 essentially does not bind. To be noted: tags: Complement Technologies A113c.8; label: 5'-32P; stem-loop. How it is done:
as §2

Data set [4] addresses complement C5 in human serum/blood (Homo sapiens, UniProt P01031). In words: inhibition; CH50 hemolysis, 0.2% human serum, 37 C. The note with it: protein: extract; label: 5'-32P; stem-loop. An excerpt:
The CH50 test measures the ability of the complement system in a serum test sample to lyse 50% of cells in a standardized suspension of antibody-coated sheep erythrocytes. A solution of 0.2% human serum was mixed with antibody-coated sheep erythrocytes (Diamedix EZ Complement CH50 Kit, Diamedix Corp., Miami, Fla.) in the presence or absence of various anti-C5 aptamers. The assay was run according to the kit protocol in veronal-buffered saline containing calcium, magnesium and 1% gelatin (GVB⁺⁺ complement buffer) and incubated for 30 minutes at 37° C. After incubation, the samples were centrifuged to pellet intact erythrocytes. The optical density at 412 nm (OD₄₁₂) of the supernatant was read to quantify the release of soluble hemoglobin, which is proportional to the extent of hemolysis (Green et al., (1995) Chem. Biol. 2:683-95). To verify that the aptamers blocked C5 activation, some hemolysis supernatants were analyzed for the presence of C5a and C5b-9 by ELISA (C5b-9 ELISA kit, Quidel, San Diego, Calif.; C5a ELISA kit, BD Biosciences, San Diego, Calif.) following the ELISA kit protocols.

The target of data set [5] is T1, complement C5 (full length). In words: filter; dot blot; 20% plateau; listing entry for SEQ 81 differs in length, printed sequence used. To be noted: tags: Quidel / Complement Technologies A120.14 / Advanced Research Technologies. As to the method:
(§3) The selection progress was monitored using a sandwich filter binding (dot blot) assay. The 5′-³²P-labeled pool RNA (trace concentration) was incubated with C5, 1×DPBS plus 0.1 mg/mL tRNA and 0.1 mg/mL salmon sperm DNA, for 30 minutes at room temperature, and then applied to a nitrocellulose and nylon filter sandwich in a dot blot apparatus (Schleicher and Schuell). The percentage of pool RNA bound to the nitrocellulose was calculated and monitored approximately every 3 rounds with a single point screen (+/−300 nM C5). Pool Kd measurements were measured using a titration of protein and the dot blot apparatus as described above.
(§4) Six constructs based on ARC913 (SEQ ID NO: 75) were transcribed, gel purified, and tested in dot blots for binding to C5.

Data set [6] has the same target. As to the kind of experiment: filter; dot blot, DPBS. To be noted: tags: Quidel / Complement Technologies A120.14 / Advanced Research Technologies. How it is done: as §3
as §1, with “Kds were estimated for the 11 best clones identified in the single point screen, by fitting the data to the equation: fraction RNA bound=amplitude*Kd/(Kd+[C5]). The clones with the three best Kds were SEQ ID NO: 91 (73 nM), SEQ ID NO: 96 (84 nM) and SEQ ID NO: 95 (92 nM). The sequences for these 11 clones are listed below in Table 5.” left out

Data set [7] has the same target. In words: filter; dot blot. To be noted: tags: Quidel / Complement Technologies A120.14 / Advanced Research Technologies. As to the method: as §3, §4

T1 sequence (P01031 whole entry): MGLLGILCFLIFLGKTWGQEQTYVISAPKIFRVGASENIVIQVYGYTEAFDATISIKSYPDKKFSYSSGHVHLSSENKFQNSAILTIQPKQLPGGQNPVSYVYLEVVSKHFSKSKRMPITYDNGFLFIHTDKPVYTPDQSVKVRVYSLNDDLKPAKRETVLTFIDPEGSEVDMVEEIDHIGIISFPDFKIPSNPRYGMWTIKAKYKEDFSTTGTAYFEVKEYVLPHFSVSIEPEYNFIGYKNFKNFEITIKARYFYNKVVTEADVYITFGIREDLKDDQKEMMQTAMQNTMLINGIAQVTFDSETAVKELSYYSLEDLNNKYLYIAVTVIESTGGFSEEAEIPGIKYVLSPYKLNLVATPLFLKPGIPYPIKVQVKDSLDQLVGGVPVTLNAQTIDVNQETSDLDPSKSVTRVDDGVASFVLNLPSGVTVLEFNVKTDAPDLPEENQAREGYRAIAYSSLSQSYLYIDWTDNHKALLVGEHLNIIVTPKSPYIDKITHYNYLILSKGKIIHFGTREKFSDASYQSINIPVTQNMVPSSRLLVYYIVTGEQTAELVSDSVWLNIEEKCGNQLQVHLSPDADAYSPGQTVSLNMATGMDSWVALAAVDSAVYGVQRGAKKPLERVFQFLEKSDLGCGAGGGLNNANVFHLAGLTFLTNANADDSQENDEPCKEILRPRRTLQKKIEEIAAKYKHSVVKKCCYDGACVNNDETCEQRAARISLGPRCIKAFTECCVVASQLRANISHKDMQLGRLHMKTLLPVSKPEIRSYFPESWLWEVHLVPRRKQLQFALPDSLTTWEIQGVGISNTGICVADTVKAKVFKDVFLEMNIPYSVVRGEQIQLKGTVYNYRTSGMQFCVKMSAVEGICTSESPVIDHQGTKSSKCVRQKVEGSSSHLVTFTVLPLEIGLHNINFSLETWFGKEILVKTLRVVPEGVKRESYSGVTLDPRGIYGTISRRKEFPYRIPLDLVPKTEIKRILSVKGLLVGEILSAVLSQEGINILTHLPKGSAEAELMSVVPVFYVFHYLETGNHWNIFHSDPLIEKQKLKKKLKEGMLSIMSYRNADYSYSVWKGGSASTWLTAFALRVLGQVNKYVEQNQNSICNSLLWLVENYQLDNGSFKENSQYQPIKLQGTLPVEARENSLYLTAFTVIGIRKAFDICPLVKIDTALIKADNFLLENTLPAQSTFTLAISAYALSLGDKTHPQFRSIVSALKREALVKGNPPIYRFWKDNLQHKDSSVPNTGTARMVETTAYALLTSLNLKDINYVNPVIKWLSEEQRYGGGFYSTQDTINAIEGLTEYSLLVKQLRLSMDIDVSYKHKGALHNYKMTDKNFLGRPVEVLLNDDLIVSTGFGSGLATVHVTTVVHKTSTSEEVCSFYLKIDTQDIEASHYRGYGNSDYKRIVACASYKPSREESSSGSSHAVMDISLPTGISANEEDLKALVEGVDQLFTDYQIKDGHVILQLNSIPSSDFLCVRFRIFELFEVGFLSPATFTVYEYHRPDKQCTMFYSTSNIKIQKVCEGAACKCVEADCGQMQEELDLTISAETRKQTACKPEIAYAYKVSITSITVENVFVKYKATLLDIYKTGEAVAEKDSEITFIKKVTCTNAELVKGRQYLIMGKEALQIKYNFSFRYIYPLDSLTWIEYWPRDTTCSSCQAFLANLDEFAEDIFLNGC
Chain of complement C1q (P02745 23-245, chain 1 of 3): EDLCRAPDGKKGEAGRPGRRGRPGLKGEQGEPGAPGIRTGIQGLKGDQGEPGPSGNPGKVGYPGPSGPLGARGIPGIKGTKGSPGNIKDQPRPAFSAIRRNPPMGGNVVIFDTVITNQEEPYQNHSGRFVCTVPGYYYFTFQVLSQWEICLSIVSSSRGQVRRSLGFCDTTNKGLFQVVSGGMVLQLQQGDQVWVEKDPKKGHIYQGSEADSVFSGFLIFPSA
Chain of complement C1q (P02746 28-253, chain 2 of 3): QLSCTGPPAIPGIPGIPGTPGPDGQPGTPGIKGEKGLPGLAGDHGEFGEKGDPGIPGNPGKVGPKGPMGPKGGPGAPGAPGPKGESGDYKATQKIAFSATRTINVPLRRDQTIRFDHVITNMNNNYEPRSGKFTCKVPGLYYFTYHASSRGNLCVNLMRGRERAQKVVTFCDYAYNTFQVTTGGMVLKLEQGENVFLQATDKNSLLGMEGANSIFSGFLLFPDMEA
Chain of complement C1q (P02747 29-245, chain 3 of 3): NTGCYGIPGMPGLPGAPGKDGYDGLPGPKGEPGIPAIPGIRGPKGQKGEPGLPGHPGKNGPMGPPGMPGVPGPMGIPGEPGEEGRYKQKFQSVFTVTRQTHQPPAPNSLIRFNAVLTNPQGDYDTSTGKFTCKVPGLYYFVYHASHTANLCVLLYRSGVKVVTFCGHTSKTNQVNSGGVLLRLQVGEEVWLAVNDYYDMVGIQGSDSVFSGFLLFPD
Chain of C5a des Arg (P01031 678-750, one chain of several): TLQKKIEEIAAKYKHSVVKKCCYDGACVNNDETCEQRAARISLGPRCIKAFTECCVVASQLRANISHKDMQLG
Chain of complement C5 in human serum/blood (P01031 whole entry): as the sequence (P01031 whole entry) above
Chain of complement C3 (P01024 23-667, chain 1 of 2): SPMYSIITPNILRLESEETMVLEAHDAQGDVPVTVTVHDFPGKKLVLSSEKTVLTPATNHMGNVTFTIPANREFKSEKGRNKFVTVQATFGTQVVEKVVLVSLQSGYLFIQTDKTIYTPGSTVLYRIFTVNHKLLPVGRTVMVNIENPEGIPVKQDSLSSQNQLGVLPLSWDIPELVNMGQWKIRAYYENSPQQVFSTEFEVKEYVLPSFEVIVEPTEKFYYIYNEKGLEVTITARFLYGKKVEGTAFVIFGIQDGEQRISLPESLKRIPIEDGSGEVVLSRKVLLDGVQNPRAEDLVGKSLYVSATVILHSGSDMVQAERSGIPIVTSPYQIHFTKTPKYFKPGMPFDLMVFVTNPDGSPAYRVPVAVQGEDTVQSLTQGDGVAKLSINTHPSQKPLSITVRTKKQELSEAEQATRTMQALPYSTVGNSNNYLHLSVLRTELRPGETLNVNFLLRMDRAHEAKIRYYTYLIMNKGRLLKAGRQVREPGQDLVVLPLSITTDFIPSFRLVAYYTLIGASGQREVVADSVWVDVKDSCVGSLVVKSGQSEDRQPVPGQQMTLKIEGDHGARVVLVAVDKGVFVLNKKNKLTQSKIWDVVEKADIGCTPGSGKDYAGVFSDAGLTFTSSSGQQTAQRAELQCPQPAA
Chain of complement C3 (P01024 672-1663, chain 2 of 2): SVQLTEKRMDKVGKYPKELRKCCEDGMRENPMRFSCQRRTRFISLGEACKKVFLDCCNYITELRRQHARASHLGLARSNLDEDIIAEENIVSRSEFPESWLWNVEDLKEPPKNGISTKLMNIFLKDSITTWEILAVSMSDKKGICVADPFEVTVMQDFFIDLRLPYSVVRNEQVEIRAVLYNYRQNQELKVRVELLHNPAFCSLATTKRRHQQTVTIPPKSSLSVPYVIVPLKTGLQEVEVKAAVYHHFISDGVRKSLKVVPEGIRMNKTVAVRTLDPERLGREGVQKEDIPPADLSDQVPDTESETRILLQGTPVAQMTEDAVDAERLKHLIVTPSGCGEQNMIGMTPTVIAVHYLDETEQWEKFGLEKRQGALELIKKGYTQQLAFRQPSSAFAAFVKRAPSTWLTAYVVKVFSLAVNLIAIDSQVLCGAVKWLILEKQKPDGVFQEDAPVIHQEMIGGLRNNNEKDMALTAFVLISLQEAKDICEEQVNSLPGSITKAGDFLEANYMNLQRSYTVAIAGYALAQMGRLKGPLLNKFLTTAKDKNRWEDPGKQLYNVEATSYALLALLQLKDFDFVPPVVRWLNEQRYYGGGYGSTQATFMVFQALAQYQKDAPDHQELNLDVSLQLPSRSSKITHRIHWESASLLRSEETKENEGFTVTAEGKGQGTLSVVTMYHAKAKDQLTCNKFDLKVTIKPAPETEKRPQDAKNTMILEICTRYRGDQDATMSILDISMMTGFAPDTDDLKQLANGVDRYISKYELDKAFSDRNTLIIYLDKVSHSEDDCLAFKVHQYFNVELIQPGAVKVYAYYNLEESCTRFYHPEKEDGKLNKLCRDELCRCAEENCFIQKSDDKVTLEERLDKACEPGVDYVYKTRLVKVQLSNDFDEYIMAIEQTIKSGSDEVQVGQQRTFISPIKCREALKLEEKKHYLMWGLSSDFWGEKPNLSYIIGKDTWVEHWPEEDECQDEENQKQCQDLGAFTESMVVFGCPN

B1: doped clone SEQ 94 (mixed)
RNA: GGGAGAGGAGAGAACGUUCUACCUUGGUUUGGCACAGGCAUACAUACGCAGGUCGAUCGGUUACGACUA
modifications: dRmY: A,G deoxy; C,U 2'-OMe
For the molecule B1, the binding result in [1] was “binds”.

For GGGUUUGGCACAGGCAUACAUACCC (mixed, dRmY: A,G deoxy; C,U 2'-OMe) [ARC876], the binding result in [2] is on record as “no binding”.

Turning to CGCCGCGGUCUCAGGCGCUGAGUCUGAGUUUACCUGCG (ssRNA, 2'-F all C and U; 2'-OMe purines except three 2'-OH purines; 3' inverted dT) [ARC186], the Kd in the data set with complement C1q was greater than 300 nM; in [3], 0.08 nM; with C5a des Arg, greater than 3000 nM; with sC5b-9 complex it was greater than 200 nM. In addition, in the data set with complement C3, the binding result is “no binding”. Inhibition in [4] was half-maximal at 0.5 nM (IC50).

CGUUCUACCUUGGUUUGGCACAGGCAUACAUACGCAGGGGUCGAUCG (mixed, dRmY: A,G deoxy; C,U 2'-OMe) [ARC954] gave a Kd in data set [5] of 130 nM.

B2: doped clone SEQ 97 (mixed)
RNA: GGGAGAGGAGAGAACGUUCUACCUUUCUCUGCCACAAGCAUACCUUCGCGGGGUUCUAUUGGUUACGACUAGCAUCGAUG
modifications: dRmY: A,G deoxy; C,U 2'-OMe
For B2, in [1], the binding result is reported as “binds”.

B3: doped clone SEQ 95 (mixed)
RNA: GGGAGAGGAGAGAACGUUCUACCUUAGGUUCGCACUGUCAUACAUACACACGGGCAAUCGGUUACGACUAGCAUCGAUG
modifications: dRmY: A,G deoxy; C,U 2'-OMe
The molecule B3 came in with a Kd in data set [6] of 92 nM.

B4: doped clone SEQ 88 (mixed)
RNA: GGGAGAGGAGAGAACGUUCUACCUUGGUUUGGCACAGGCAUACAUACGCAGGGGUCGAUCGGUUACGACUAGCAUCGAUG
modifications: dRmY: A,G deoxy; C,U 2'-OMe
As to B4, the binding result in data set [1] is recorded as “binds”.

B5: doped clone SEQ 90 (mixed)
RNA: B4 RNA with C43A, G54C
modifications: dRmY: A,G deoxy; C,U 2'-OMe
Regarding B5, the binding result in data set [1] was “binds”.

B6: doped clone SEQ 91 (mixed)
RNA: B4 RNA with A34C, C43U, G54A, C56U, G61C
modifications: dRmY: A,G deoxy; C,U 2'-OMe
In data set [6], B6 gave a Kd of 73 nM.

B7: doped clone SEQ 93 (mixed)
RNA: B4 RNA with G27U, U29G, G38C, U41A, A42C, A44C, G51C, G54A, A58C, U59C
modifications: dRmY: A,G deoxy; C,U 2'-OMe
Consider B7, for which the binding result in [1] was “binds”.

B8: doped clone SEQ 89 (mixed)
RNA: B4 RNA with G53U, G61U
modifications: dRmY: A,G deoxy; C,U 2'-OMe
As for B8, the binding result in [1] was “binds”.

B9: doped clone SEQ 98 (mixed)
RNA: GGGAGAGGAGAGAACGUUCUACCUUGGUUUGGCACAGGCAUAUAUACGCAGGGUCGAUCCGUUACGACUAGCAUCGAUG
modifications: dRmY: A,G deoxy; C,U 2'-OMe
Regarding B9, the binding result in data set [1] is reported as “binds”.

Regarding GGCGGCACAGGCAUACAUACGCAGGGGUCGCC (mixed, dRmY: A,G deoxy; C,U 2'-OMe) [ARC878], the binding result in [2] is given as “no binding”.

With GGGUUUGGCACAGGCAUACAAACCC (mixed, dRmY: A,G deoxy; C,U 2'-OMe) [ARC877], in data set [2], the binding result was “no binding”.

In turn, CCUUGGUUUGGCACAGGCAUACAUACGCAGGG (mixed, dRmY: A,G deoxy; C,U 2'-OMe) [ARC874] registered a Kd in [7] of 1000 nM.

CCUUGGUUUGGCACAGGCAUACAAACGCAGGG (mixed, dRmY: A,G deoxy; C,U 2'-OMe) [ARC875]: in data set [2], the binding result is “no binding”.

B10: doped clone SEQ 92 (mixed)
RNA: GGGAGAGGAGAGAACGUUCUACCUUGGUUUGGCGCAGGCAUACAUACGCAGGUCGAUCGGUUACGACUAGCAUCGAUG
modifications: dRmY: A,G deoxy; C,U 2'-OMe
With B10, the binding result in data set [1] is given as “binds”.

These data come from patent publication US20090269356, “Complement Binding Aptamers and Anti-C5 Agents Useful in the Treatment of Ocular Disorders” (published 2009).
